US11260115B1, “Peptides and combination of peptides for use in immunotherapy against CLL and other cancers” (immatics biotechnologies GmbH, priority 2015, dated 2022)

target: HLA-A*02:01 (Homo sapiens, UniProt P04439, D140Y/D185E/D98H/E176V/E277Q/G131W/G231S/I119V/I121R/I166T/I218V/L300P/L318F/N151K/N90K/P208A/P217A/Q86G/Q94H/R138H/R169H/T345S); assay: MHC binding assay (UV-ligand exchange, β2m ELISA, peptide exchange yield); conditions: binding to HLA-A*02:01
Description: Candidate peptides for T cell based therapies according to the present invention were further tested for their MHC binding capacity (affinity). The individual peptide-MHC complexes were produced by UV-ligand exchange, where a UV-sensitive peptide is cleaved upon UV-irradiation, and exchanged with the peptide of interest as analyzed. Only peptide candidates that can effectively bind and stabilize the peptide-receptive MHC molecules prevent dissociation of the MHC complexes. To determine the yield of the exchange reaction, an ELISA was performed based on the detection of the light chain (β2m) of stabilized MHC complexes. The assay was performed as generally described in Rodenko et al. (Rodenko et al., 2006).
96 well MAXISorp plates (NUNC) were coated over night with 2 ug/ml streptavidin in PBS at room temperature, washed 4× and blocked for 1 h at 37° C. in 2% BSA containing blocking buffer. Refolded HLA-A*02:01/MLA-001 monomers served as standards, covering the range of 15-500 ng/ml. Peptide-MHC monomers of the UV-exchange reaction were diluted 100 fold in blocking buffer. Samples were incubated for 1 h at 37° C., washed four times, incubated with 2 ug/ml HRP conjugated anti-β2m for 1 h at 37° C., washed again and detected with TMB solution that is stopped with […]. Absorption was measured at 450 nm. Candidate peptides that show a high exchange yield (preferably higher than 50%, most preferred higher than 75%) are generally preferred for a generation and production of antibodies or fragments thereof, and/or T cell receptors or fragments thereof, as they show sufficient avidity to the MHC molecules and prevent dissociation of the MHC complexes.
Table 11: MHC class I binding scores. Binding of HLA-class I restricted peptides to HLA-A*02:01 was ranged by peptide exchange yield: ≥10%=+; ≥20%=++; ≥50=+++; ≥75%=++++

Peptide Exchange (MHC class I binding score, peptide exchange yield) | Substance
“++++” (>75% = ++++) | 329 (VLMDGSVKL; listed as Homo sapiens) [compound 329]
“+++” (>50 = +++) | 184 (VLSHNLYTV; listed as Homo sapiens) [compound 184]
“++” (>20% = ++) | 269 (TLTDEQFLV; listed as Homo sapiens) [compound 269]
“+++” (>50 = +++) | 56 (FVFEAPYTL; listed as Homo sapiens) [compound 56]
“+++” (>50 = +++) | 30 (ELLEGSEIYL; listed as Homo sapiens) [compound 30]
“+++” (>50 = +++) | 171 (TLVPPAALISI; listed as Homo sapiens) [compound 171]
“+++” (>50 = +++) | 352 (ALVFELHYV; listed as Homo sapiens) [compound 352]
“+++” (>50 = +++) | 358 (FLTDYLNDL; listed as Homo sapiens) [compound 358]
“+++” (>50 = +++) | 347 (YLGPVSPSL; listed as Homo sapiens) [compound 347]
“+++” (>50 = +++) | 350 (ALEDRVWEL; listed as Homo sapiens) [compound 350]
“+++” (>50 = +++) | 117 (LLILENILL; listed as Homo sapiens) [compound 117]
“+++” (>50 = +++) | 8 (ALAASALPALV; listed as Homo sapiens) [compound 8]
“+++” (>50 = +++) | 346 (VLVQVSPSL; listed as Homo sapiens) [compound 346]
“+++” (>50 = +++) | 263 (SQWEDIHVV; listed as Homo sapiens) [compound 263]
“+++” (>50 = +++) | 292 (AAALIIHHV; listed as Homo sapiens) [compound 292]
“+++” (>50 = +++) | 345 (YLIEPDVELQRI; listed as Homo sapiens) [compound 345]
“+++” (>50 = +++) | 359 (FMQDPMEVFV; listed as Homo sapiens) [compound 359]
“+++” (>50 = +++) | 55 (FMEPTLLML; listed as Homo sapiens) [compound 55]
“+++” (>50 = +++) | 283 (ILQPMDIHV; listed as Homo sapiens) [compound 283]
“++++” (>75% = ++++) | 36 (FILTHVDQL; listed as Homo sapiens) [compound 36]
“+++” (>50 = +++) | 370 (SIFASPESV; listed as Homo sapiens) [compound 370]

Continued, substance first:

Substance | Peptide Exchange (MHC class I binding score, peptide exchange yield)
7 (ALLERTGYTL; listed as Homo sapiens) [compound 7] | “+++” (>50 = +++)
299 (ILEENIPVL; listed as Homo sapiens) [compound 299] | “+++” (>50 = +++)
21 (ALWAGLLTL; listed as Homo sapiens) [compound 21] | “+++” (>50 = +++)
103 (KLGGTPAPA; listed as Homo sapiens) [compound 103] | “++” (>20% = ++)
333 (VTLEFPQLIRV; listed as Homo sapiens) [compound 333] | “+++” (>50 = +++)
181 (VLLSIPFVSV; listed as Homo sapiens) [compound 181] | “+++” (>50 = +++)
3 (VIAELPPKV; listed as Homo sapiens) [compound 3] | “++” (>20% = ++)
207 (IIADLDTTIMFA; listed as Homo sapiens) [compound 207] | “+++” (>50 = +++)
191 (YIFDGSDGGV; listed as Homo sapiens) [compound 191] | “+++” (>50 = +++)
136 (NLDKLWTLV; listed as Homo sapiens) [compound 136] | “++” (>20% = ++)
217 (ALDEPPYLTV; listed as Homo sapiens) [compound 217] | “+++” (>50 = +++)
180 (LLKDGPEIGL; listed as Homo sapiens) [compound 180] | “++” (>20% = ++)
46 (YIIDSAQAV; listed as Homo sapiens) [compound 46] | “+++” (>50 = +++)
92 (ILEPLNPLL; listed as Homo sapiens) [compound 92] | “+++” (>50 = +++)
196 (YLLLQTYVL; listed as Homo sapiens) [compound 196] | “+” (>10% = +)
84 (GVMDVNTAL; listed as Homo sapiens) [compound 84] | “++” (>20% = ++)
276 (VLNDGAPNV; listed as Homo sapiens) [compound 276] | “+++” (>50 = +++)
236 (GLLESGRHYL; listed as Homo sapiens) [compound 236] | “+++” (>50 = +++)
234 (GLDDAEYAL; listed as Homo sapiens) [compound 234] | “++” (>20% = ++)
90 (VIADLGLIRV; listed as Homo sapiens) [compound 90] | “+++” (>50 = +++)

Substance | Peptide Exchange (MHC class I binding score, peptide exchange yield)
190 (VVMGTVPRL; listed as Homo sapiens) [compound 190] | “+++” (>50 = +++)
137 (NLIKTVIKL; listed as Homo sapiens) [compound 137] | “+++” (>50 = +++)
252 (NLLDPGSSYLL; listed as Homo sapiens) [compound 252] | “+++” (>50 = +++)
156 (SLNIGDVQL; listed as Homo sapiens) [compound 156] | “+++” (>50 = +++)
300 (ILLNPAYDVYL; listed as Homo sapiens) [compound 300] | “+++” (>50 = +++)
99 (ILIFHSVAL; listed as Homo sapiens) [compound 99] | “+++” (>50 = +++)
113 (KVPAEEVLVAV; listed as Homo sapiens) [compound 113] | “+++” (>50 = +++)
173 (TVIENIHTI; listed as Homo sapiens) [compound 173] | “++” (>20% = ++)
128 (LLSEEEYHL; listed as Homo sapiens) [compound 128] | “+++” (>50 = +++)
65 (GLDDMKANL; listed as Homo sapiens) [compound 65] | “++” (>20% = ++)
124 (LLLEETEKQAV; listed as Homo sapiens) [compound 124] | “+++” (>50 = +++)
312 (LLYNSTDPTL; listed as Homo sapiens) [compound 312] | “+++” (>50 = +++)
261 (SLVEAQGWLV; listed as Homo sapiens) [compound 261] | “+++” (>50 = +++)
64 (KLLESVASA; listed as Homo sapiens) [compound 64] | “+++” (>50 = +++)
289 (ILEEQPMDMLL; listed as Homo sapiens) [compound 289] | “+++” (>50 = +++)
13 (VVDGMPPGV; listed as Homo sapiens) [compound 13] | “+++” (>50 = +++)
60 (FVLDHEDGLNL; listed as Homo sapiens) [compound 60] | “+++” (>50 = +++)
185 (VMDDQRDLI; listed as Homo sapiens) [compound 185] | “++” (>20% = ++)
210 (KLLVQDFFL; listed as Homo sapiens) [compound 210] | “+++” (>50 = +++)
